The target of this experiment is T1, PD-L1 (Programmed death-ligand 1) on MDA-MB-231 cancer cells (UniProt Q9NZQ7 19-290, limits assumed).
T1 construct: whole, on cells; Endogenous PD-L1 of the MDA-MB-231 cell line
Nature of the experiment: concluded from co-culture 4-1BB reporter assay with PD-L1-expressing MDA-MB-231 cells. For orientation: In a reporter assay the amount or activity of a reporter protein is the signal.

Experimental findings from patent publication KR20210098147A (dated 2021) are described below.

T1 sequence (Q9NZQ7 19-290 limits assumed): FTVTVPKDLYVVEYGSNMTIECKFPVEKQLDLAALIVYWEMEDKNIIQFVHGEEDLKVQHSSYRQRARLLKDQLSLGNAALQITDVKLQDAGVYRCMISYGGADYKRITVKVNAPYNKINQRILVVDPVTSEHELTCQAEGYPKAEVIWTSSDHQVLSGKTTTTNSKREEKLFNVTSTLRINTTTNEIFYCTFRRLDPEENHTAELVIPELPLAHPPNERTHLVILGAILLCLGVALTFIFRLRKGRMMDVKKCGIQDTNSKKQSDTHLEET

B1: αCEA-αPDL1-hyFc-4-1BBL 융합단백질 이량체 (Fc fusion)
chain: EVQLVESGGGVVQPGRSLRLSCSASGFDFTTYWMSWVRQAPGKGLEWIGEIHPDSSTINYAPSLKDRFTISRDNAKNTLFLQMDSLRPEDTGVYFCASLYFGFPWFAYWGQGTPVTVSSGGGGSGGGGSGGGGSDIQLTQSPSSLSASVGDRVTITCKASQDVGTSVAWYQQKPGKAPKLLIYWTSTRHTGVPSRFSGSGSGTDFTFTISSLQPEDIATYYCQQYSLYRSFGQGTKVEIKGGGGSGGGGSGGGGSGGGGSEVQLLESGGGLVQPGGSLRLSCAASGFTFSSYDMSWVRQAPGKSLEWVATISDAGGYIYYSDSVKGRFTISRDNSKNTLYLQMNSLRAEDTAVYICAREFGKRYALDYWGQGTTVTVSSGGGGSGGGGSGGGGSDIQMTQSPSSLSASVGDRVTITCKASQDVTPAVAWYQQKPGKAPKLLIYSTSSRYTGVPSRFSGSGSGTDFTFTISSLQPEDIATYYCQQHYTTPLTFGQGTKLEIKGGGGSGGGGSGGGGSEPKSCDKTHTCPPCPSHTQPLGVFLFPPKPKDQLMISRTPEVTCVVVDVSQEDPEVQFNWYVDGVEVHNAKTKPREEQFNSTYRVVSVLTVLHQDWLNGKEYKCKVSNKGLPSSIEKTISKAKGQPREPQVYTLPPSQEEMTKNQVSLTCLVKGFYPSDIAVEWESNGQPENNYKTTPPVLDSDGSFFLYSRLTVDKSRWQEGNVFSCSVLHEALHNHYTQKSLSLSLGKGGGGSDPAGLLDLRQGMFAQLVAQNVLLIDGPLSWYSDPGLAGVSLTGGLSYKEDTKELVVAKAGVYYVFFCLELRRVVAGEGSGSVSLALHLQPLRSAAGAAALALTVDLPPASSEARNSAFGFQGRLLHLSAGQRLGVHLHTEARARHAWQLTQGATVLGLFRVCPEIPAGLPSPRSE
notes: Homodimer by disulfide bonds in the linker; also called IO-129; αCEA-αPDL1-hyFc-h4-1BBL 융합단백질 이량체
Consider B1, for which the binding result is listed as “binds”.
